Assay results taken from PMC3556572 (Biochemistry, 2012).
Where two headings read alike, the source gives them in different places.

Tests used:
Assay in all cases: co-sedimentation
[1] = target: T1, filamentous actin (F-actin), chicken skeletal muscle (chicken, UniProt P68139 1-377)
[2] = target: T1, filamentous actin (F-actin), chicken …; remark: listed apart in the source
[3] = target: T1, filamentous actin (F-actin), chicken …; remark: listed apart in the source

Row | Binder | stoichiometry N [1] [Arg per actin monomer] | stoichiometry N [2] | stoichiometry N [3] | fold decrease in affinity for F-actin in the presence of saturating Arg [3] [fold]
1 | Abl2/Arg (Abelson-related gene) nonreceptor tyrosine kinase (enzyme) MGQQVGRVGEAPGLQQPQPRGIRGSSAARPSGRRRDPAGRTADAGFNVFTQHDHFASCVEDGFEGDKTGGSSPEVLHRPFGCDAESQALNEAIRWSSKENLLGATESDPNLFVALYDFVASGDNTLSITKGEKLRVLGYNQNGEWSEVRSKNGQGWVPSNYITPVNSLEKHSWYHGPVSRSAAEYLLSSLINGSFLVRESESSPGQLSISLRYEGRVYHYRINTTTDSKVYVTAESRFSTLAELVHHHSTVADGLVTTLHYPAPKCNKPTVYGVSPIHDKWEMERTDITMKHKLGGGQYGEVYVGVWKKYSLTVAVKTFKEDTMEVEEFLKEAAVMKEIKHPNLVQLLGVCTLEPPFYIVTEYMPYGNLLDYLRECSREEVTAVVLLYMATQISSAMEYLEKKNFIHRDLAARNCLVGENHVVKVADFGLSRLMTGDTYTAHAGAKFPIKWTAPESLAYNTFSIKSDVWAFGVLLWEIATYGMSPYPGIDLSQVYDLLEKGYRMEQPEGCPPKVYELMRACWKWSPADRPSFAETHQAFETMFHDSSISEEVAEELGRTASSSSVVPYLPRLPLLPSKTRTLRKQGENKENLDGGLDAAESLASSSAPAGFIRSTQASSGSPALPRKQRDKSPSSLLEDAKETCFTRDRKGGFFSSFMKKRNAPTPPKRSSSFREMENQPHKKYELTGNFSPVASLQNADGFSVAPSQQEPNLVPAKCYGGSFAQRNLCADDDSGGGGGSGTAGGGWSGITGFFTPRLIKKTLGLRAGKPTASDDTSKPFPRSNSTSSMSSGLPEQDRMAMTLPRNCQRSKLQLERTVSTSSQPEENVDRANDMLPKKSEEGAAPARERPKAKLLPRGATALPLRAPDPAITESDSPGVGVAGVAAAPKGKERNGGTRLGVAGVPEDGEQLGWSSPAKAVAVLPTTHNHKVPVLISPTLKHTPADVQLIGTDSQGNKFKLLSEHQVTSSGDKDRPRRVKPKCAPPPPPVMRLLQHPSTCSDPEEEPTAPPAGQHTPETQEGGKKAAPGPVPSSGKPGRPVMPPPQVPLPTSSISPAKMANGTAGTKVALRKTKQAAEKISADKISKEALLECADLLSSAITEPVPNSQLVDTGHQLLDYCSGYVDSIPQTRNKFAFREAVSKLELSLQELQVSSTAAGVPGTNPVLNNLLSCVQEISDVVQR | 0.5 |  |  | 
2 | cortactin (natural protein, exhibits tyrosine phosphorylation as purified from insect cells (anti-phosphotyrosine blot); sites not mapped here) not shown |  | 0.25 cortactin per actin monomer |  | 
3 | cortactin W525A (natural protein, exhibits tyrosine phosphorylation as purified from insect cells (anti-phosphotyrosine blot); sites not mapped here) not shown |  | 0.25 cortactin per actin monomer | 0.5 cortactin per actin monomer | 
4 | cortactin 3YF (natural protein) not shown |  | 0.25 cortactin per actin monomer | 0.5 cortactin per actin monomer | ~3
5 | cortactin W525A, enzymatically dephosphorylated (natural protein, dephosphorylated with CIP (no tyrosine phosphorylation on the anti-phosphotyrosine blot)) not shown |  |  |  | ~3
